Experimental data reported in paper PMC4844422, “Activity Regulation by Heteromerization of Arabidopsis Allene Oxide Cyclase Family Members” (Plants, 2016).

Biological target: the molecule itself
Assay: SDS-PAGE after mild SDS treatment (SDS-stable oligomer); purified His-tagged protein treated with 1% SDS for 5 min at room temperature or 42 °C, 12% SDS-PAGE, anti-His-tag immunoblot; trimer at about 65 kDa, monomer 26 kDa

B1: Arabidopsis allene oxide cyclase 2 (AOC2), recombinant, with N-terminal His-tag (enzyme, Arabidopsis thaliana, UniProt Q9LS02 78-253, looked up)
chain: PSKVQELSVYEINELDRHSPKILKNAFSLMFGLGDLVPFTNKLYTGDLKKRVGITAGLCVVIEHVPEKKGERFEATYSFYFGDYGHLSVQGPYLTYEDSFLAITGGAGIFEGAYGQVKLQQLVYPTKLFYTFYLKGLANDLPLELTGTPVPPSKDIEPAPEAKALEPSGVISNYTN
notes: also called AtAOC2; hAOC2; source: E. coli M15 (pQE30), purified (Ni-NTA-agarose); not shown: His-tag, N-terminal, kept
stoichiometry N: 3

B2: Arabidopsis allene oxide cyclase 2 (AOC2), recombinant, with C-terminal His-tag (enzyme, Arabidopsis thaliana, UniProt Q9LS02 78-253, looked up)
chain: PSKVQELSVYEINELDRHSPKILKNAFSLMFGLGDLVPFTNKLYTGDLKKRVGITAGLCVVIEHVPEKKGERFEATYSFYFGDYGHLSVQGPYLTYEDSFLAITGGAGIFEGAYGQVKLQQLVYPTKLFYTFYLKGLANDLPLELTGTPVPPSKDIEPAPEAKALEPSGVISNYTN
notes: also called AtAOC2; source: E. coli M15 (pQE60), purified (Ni-NTA-agarose); not shown: His-tag, C-terminal, kept
stoichiometry N: 3
